# How the values were obtained:
# [1] = system: AncSZ; test: phosphorylation enrichment, bacterial display (enrichment ratio); higher = better substrate or ligand; peptides without Tyr show the background
# [2] = target: EPHB1 (UniProt P54762); test: as above
# [3] = target: EPHB2 (UniProt P29323); test: as above
# [4] = target: FGFR1 (UniProt P11362); test: as above
# [5] = target: FGFR3 (UniProt P22607); test: as above
# [6] = system: Fer (mouse); test: as above
# [7] = target: Fes (UniProt P07332); test: as above
# [8] = target: Fyn (UniProt P06241); test: as above
# Fyn, sequence (P06241 whole entry, looked up): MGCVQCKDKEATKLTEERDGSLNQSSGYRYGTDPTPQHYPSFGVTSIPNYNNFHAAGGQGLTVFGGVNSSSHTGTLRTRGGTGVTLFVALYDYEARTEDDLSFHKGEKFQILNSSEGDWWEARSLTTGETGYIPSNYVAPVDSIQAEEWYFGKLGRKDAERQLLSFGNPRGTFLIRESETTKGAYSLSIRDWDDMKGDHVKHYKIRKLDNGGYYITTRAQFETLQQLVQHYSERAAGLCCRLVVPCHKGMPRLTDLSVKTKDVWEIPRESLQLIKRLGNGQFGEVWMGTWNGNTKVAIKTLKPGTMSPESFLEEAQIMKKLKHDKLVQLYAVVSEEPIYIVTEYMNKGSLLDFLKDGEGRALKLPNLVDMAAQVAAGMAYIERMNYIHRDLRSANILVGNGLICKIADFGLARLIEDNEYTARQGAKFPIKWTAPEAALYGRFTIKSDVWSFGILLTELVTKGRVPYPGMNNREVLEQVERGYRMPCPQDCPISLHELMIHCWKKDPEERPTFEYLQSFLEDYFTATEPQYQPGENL
# [9] = target: Hck (UniProt P08631); test: as above
# Hck, sequence (P08631 whole entry, looked up): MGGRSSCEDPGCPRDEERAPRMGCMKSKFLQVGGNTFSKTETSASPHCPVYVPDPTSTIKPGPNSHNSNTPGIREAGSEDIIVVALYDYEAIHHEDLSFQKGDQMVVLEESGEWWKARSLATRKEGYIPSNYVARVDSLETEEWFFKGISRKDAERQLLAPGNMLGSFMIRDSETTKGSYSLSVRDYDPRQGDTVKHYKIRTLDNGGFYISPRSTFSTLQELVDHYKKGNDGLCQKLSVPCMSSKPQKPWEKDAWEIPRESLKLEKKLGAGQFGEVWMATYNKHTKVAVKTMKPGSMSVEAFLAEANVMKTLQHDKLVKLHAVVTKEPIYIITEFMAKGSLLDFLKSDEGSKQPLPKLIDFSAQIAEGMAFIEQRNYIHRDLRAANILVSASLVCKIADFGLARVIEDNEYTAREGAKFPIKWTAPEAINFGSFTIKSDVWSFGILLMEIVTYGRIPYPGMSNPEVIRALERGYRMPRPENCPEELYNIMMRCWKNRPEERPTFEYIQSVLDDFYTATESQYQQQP
# [10] = target: Jak2 (UniProt O60674); test: as above
# Jak2, sequence (O60674 whole entry, looked up): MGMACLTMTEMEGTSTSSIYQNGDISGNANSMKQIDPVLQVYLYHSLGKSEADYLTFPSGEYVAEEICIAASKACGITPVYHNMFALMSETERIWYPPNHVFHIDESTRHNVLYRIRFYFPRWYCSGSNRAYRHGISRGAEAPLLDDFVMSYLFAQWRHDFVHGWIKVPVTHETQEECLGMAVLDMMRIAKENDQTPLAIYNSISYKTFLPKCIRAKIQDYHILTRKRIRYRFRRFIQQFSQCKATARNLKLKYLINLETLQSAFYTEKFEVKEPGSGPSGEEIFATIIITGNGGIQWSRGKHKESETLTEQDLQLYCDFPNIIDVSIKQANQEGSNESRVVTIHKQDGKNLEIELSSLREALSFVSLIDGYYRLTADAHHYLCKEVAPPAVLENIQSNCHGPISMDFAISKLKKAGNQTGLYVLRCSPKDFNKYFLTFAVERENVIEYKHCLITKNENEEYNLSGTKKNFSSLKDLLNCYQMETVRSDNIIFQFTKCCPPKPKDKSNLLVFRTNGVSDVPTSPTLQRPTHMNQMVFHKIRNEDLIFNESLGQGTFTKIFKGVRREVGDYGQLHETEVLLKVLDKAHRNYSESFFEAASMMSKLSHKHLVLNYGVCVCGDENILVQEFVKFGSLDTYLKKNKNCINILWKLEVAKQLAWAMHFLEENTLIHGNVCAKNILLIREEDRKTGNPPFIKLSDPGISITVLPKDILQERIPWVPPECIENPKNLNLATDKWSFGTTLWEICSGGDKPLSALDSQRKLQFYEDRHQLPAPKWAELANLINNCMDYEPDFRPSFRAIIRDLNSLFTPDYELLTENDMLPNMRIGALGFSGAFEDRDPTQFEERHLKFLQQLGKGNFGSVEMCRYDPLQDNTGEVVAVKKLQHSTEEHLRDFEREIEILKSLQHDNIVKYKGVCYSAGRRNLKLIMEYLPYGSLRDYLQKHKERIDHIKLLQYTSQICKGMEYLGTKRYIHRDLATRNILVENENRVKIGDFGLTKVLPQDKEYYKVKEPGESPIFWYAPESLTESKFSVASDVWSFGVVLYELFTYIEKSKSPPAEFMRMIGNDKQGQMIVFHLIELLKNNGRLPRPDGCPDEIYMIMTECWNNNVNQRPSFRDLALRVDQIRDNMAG
# [11] = target: MERTK (UniProt Q12866); test: as above
# [12] = system: c-Abl (mouse); test: as above
# [13] = system: c-Src; test: as above
# [14] = target: Grb2 SH2 (UniProt P62993); test: SH2 binding enrichment of the phosphorylated peptide, bacterial display (enrichment ratio); higher = better substrate or ligand; peptides without Tyr show the background
# Grb2 SH2, sequence (P62993 whole entry, looked up): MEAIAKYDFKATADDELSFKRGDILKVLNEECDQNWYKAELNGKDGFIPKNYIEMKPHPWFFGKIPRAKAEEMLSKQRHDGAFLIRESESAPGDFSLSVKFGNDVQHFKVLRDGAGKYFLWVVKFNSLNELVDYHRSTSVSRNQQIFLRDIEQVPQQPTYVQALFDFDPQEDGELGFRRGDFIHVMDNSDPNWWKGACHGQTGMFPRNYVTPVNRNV
# [15] = target: SHP2-C SH2; test: as above
# [16] = target: c-Src SH2; test: as above
# 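Wherever SH2 binding enrichment of the phosphorylated peptide, bacterial display is given: peptide library displayed on the E. coli surface as eCPX fusions, selected cells deep-sequenced, score is each peptide's frequency after selection divided by its frequency in the input.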
# 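Wherever phosphorylation enrichment, bacterial display is given: 11-residue human phosphosite peptides and single-mutation variants displayed on the E. coli surface, counted by deep sequencing, each peptide's frequency after selection divided by its frequency in the unselected input library; frequency after pTyr selection over input frequency; kinase dosed for 20-30% of maximal phosphorylation in three min.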
# EPHB2, sequence (P29323 whole entry, looked up): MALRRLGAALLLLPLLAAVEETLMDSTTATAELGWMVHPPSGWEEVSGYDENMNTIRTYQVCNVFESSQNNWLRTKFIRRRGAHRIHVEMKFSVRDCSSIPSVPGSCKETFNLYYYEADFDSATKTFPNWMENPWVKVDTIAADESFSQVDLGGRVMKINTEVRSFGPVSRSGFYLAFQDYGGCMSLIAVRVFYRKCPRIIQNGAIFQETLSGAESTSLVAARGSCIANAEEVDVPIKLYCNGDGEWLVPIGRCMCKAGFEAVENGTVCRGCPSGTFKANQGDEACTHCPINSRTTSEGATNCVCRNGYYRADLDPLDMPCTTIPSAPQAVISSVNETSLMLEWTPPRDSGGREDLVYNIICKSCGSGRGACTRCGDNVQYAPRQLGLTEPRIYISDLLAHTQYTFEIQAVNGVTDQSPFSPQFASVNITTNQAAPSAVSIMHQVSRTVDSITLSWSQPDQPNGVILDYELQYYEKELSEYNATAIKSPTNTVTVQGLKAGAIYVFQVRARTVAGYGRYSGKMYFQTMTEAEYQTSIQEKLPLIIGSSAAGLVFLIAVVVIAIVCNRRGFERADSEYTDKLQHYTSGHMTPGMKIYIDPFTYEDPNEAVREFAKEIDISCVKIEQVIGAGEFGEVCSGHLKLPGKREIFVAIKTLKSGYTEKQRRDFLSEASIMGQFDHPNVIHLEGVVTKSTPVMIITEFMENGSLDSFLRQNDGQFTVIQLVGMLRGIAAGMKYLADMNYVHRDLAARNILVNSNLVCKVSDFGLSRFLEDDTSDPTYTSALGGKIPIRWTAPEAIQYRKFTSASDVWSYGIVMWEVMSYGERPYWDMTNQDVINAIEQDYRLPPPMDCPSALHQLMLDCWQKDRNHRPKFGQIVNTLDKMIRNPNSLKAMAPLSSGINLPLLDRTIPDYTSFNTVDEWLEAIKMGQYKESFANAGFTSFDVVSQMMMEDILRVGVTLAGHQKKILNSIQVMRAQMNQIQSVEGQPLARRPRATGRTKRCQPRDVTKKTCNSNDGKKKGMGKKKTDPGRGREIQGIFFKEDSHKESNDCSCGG
# FGFR1, sequence (P11362 whole entry, looked up): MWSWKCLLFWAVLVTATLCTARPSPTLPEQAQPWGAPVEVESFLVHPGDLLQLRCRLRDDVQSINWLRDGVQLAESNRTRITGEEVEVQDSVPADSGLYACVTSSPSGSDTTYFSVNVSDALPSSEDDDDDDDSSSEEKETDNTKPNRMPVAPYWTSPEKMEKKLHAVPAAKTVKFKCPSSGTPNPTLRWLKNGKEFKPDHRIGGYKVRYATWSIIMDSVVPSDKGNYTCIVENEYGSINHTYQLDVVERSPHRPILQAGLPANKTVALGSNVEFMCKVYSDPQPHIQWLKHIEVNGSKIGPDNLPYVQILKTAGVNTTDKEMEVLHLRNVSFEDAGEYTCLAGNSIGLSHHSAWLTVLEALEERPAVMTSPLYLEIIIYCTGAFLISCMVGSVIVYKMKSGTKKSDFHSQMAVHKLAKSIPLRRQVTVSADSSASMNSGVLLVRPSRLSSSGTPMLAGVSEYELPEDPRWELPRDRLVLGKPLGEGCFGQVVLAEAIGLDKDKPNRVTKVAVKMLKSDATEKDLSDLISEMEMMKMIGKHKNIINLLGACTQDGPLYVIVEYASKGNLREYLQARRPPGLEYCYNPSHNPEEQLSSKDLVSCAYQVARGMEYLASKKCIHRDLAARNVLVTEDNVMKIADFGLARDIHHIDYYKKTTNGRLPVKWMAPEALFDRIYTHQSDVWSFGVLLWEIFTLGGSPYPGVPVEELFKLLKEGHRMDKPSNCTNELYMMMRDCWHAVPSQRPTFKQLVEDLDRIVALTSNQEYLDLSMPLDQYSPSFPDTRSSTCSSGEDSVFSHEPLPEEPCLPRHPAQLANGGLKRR
Sequence,phosphorylation enrichment [1],phosphorylation enrichment [2],phosphorylation enrichment [3],phosphorylation enrichment [4],phosphorylation enrichment [5],phosphorylation enrichment [6],phosphorylation enrichment [7],phosphorylation enrichment [8],phosphorylation enrichment [9],phosphorylation enrichment [10],phosphorylation enrichment [11],phosphorylation enrichment [12],phosphorylation enrichment [13],SH2 binding enrichment [14],SH2 binding enrichment [15],SH2 binding enrichment [16]
PVFQVYPLLNC [GATA1_Y78],1.7,0.775,0.64,1.27,1.43,0.758,1.87,0.652,0.654,1.72,0.927,1.13,0.697,0.742,0.783,0.49
PVPKTYDMLKA [PKP2_Y108],1.07,1.2,0.541,0.766,0.707,0.577,1.02,0.764,1.46,1.92,0.648,1.01,0.861,0.806,0.695,1.39
PVQAVYQKVVA [HBB_Y131_A130V],0.373,0.727,0.578,0.421,0.617,1.14,0.532,0.677,1.75,0.289,1.47,0.203,1.61,0.913,1.01,1.3
PVQDAYQKVVA [HBB_Y131_A129D],0.526,0.445,0.308,0.397,0.429,0.493,0.453,0.366,0.353,0.425,0.379,0.421,0.386,0.983,0.956,1.03
PYVYYYSYLLK [PTEN_Y178_R173P],1.99,3.56,1.92,6.02,6.37,1.1,1.87,1.88,3.46,4.21,5.9,3.68,3.14,0.873,0.598,0.669
QDKDLYPCPGT [RLF_Y671_R668K],1.36,0.701,0.857,0.744,0.785,0.562,1.18,0.652,0.625,0.996,0.613,0.726,0.483,0.832,0.801,0.658
QEMMEYRRQIQ [DES_Y324_H326R],0.878,0.523,0.601,0.424,0.607,0.644,0.92,0.491,0.355,1.18,0.455,0.428,0.563,0.737,0.734,0.401
QGCSIYKDFFR [PLA2G2D_Y82_YF],1.44,1.11,1.18,0.721,1.28,0.774,1.74,3.19,1.86,2.25,0.998,2.14,6.61,0.921,0.724,0.487
QGIIIYKAAYF [SLC25A4_Y187_R188K],1.66,0.94,1.04,0.948,1.2,1.01,2.36,0.53,0.647,2.63,1.04,1.85,1.06,0.708,0.942,0.391
QGIYGYHHHMQ [UFSP2_Y287_Y290H],0.932,2.34,4.59,0.613,0.653,10.9,0.923,9.98,9.07,0.598,9.93,4.62,7.86,1.09,1.07,1.07
QISQDYGVLLE [PRDX3_Y172_R170Q],1.37,0.876,1.21,0.851,0.792,0.673,1.69,0.828,0.743,1.32,0.603,1.18,0.981,0.52,0.482,0.516
QISRDYGVLLE [PRDX3_Y172],0.922,0.617,0.731,0.523,0.69,0.637,1.04,0.624,0.751,0.862,0.64,0.635,0.679,0.845,0.683,0.576
QITQVYGFYHE [PPP2CA_Y127_D131H],0.938,0.66,0.877,0.614,0.753,0.872,1.07,10.1,7.96,1.21,3.47,0.67,8.14,1.04,1.04,1.05
QKMFDYLKEKK [RYR2_Y3780_L3778F],0.797,0.558,0.438,0.459,0.595,0.574,0.958,0.445,0.471,0.805,0.403,0.763,0.471,0.743,0.738,0.363
QLLIKYPPEEV [ZZZ3_Y670],1.25,0.898,0.816,0.811,0.95,0.473,1.62,0.7,0.566,1.39,0.858,1.25,0.604,0.848,1,0.626
QLYGAYLRIHA [BSCL2_Y213],1.95,1,1.3,1.02,1.12,0.536,1.68,7.21,4.32,1.2,0.905,0.915,3.58,1.27,1.35,1.13
QMVGMYAFSFM [AVPR2_Y124_S126F_YF],1.5,1.95,3.08,0.846,1.63,3.54,1.65,1.16,1.06,1.15,5.8,0.912,1.28,0.654,0.817,0.353

Sequence,phosphorylation enrichment [1],phosphorylation enrichment [2],phosphorylation enrichment [3],phosphorylation enrichment [4],phosphorylation enrichment [5],phosphorylation enrichment [6],phosphorylation enrichment [7],phosphorylation enrichment [8],phosphorylation enrichment [9],phosphorylation enrichment [10],phosphorylation enrichment [11],phosphorylation enrichment [12],phosphorylation enrichment [13],SH2 binding enrichment [14],SH2 binding enrichment [15],SH2 binding enrichment [16]
QNKEDYAGLKE [GSTO1_Y139],1.34,0.494,1.29,0.893,1.73,2.22,1.6,0.919,0.82,1.24,1.09,1.37,1.01,0.69,0.902,0.803
QNKEDYDGLKE [GSTO1_Y139_A140D],1.83,1.02,1.04,0.867,1.3,0.754,1.74,0.943,0.915,1.13,0.666,1.19,0.641,1.09,0.737,0.765
QNTGDYCDLYG [PTPN11_Y62_Y63C],2.75,9.03,7.83,5.87,4.13,1.39,1.08,1.49,2.08,1.35,0.633,1.34,1.84,1.11,1.13,1.22
QNWELYSEGLG [CNKSR1_Y665_R662W],1.37,5.52,5.04,0.744,0.746,0.869,1.07,3.04,4.32,1.13,2.26,0.751,2.08,0.958,0.771,0.628
QPGTDYKIYLY [FN1_Y1970],1.74,0.939,0.759,0.705,0.846,0.792,1.55,0.715,0.86,1.69,0.501,1.04,0.804,0.741,0.753,0.466
QQLDEYQKLLD [LMNA_Y359_E361K],1.53,1.27,1.28,0.65,1.2,0.905,1.85,0.724,0.742,1.72,0.81,1.03,0.642,0.708,0.724,0.699
QQTFTYDSGIH [JUP_Y22_YF],1.8,1.35,1.33,0.984,1.42,0.896,1.78,1.18,1.85,0.985,0.793,0.999,0.95,0.673,0.809,0.563
QRCFVYFFSFL [PTEN_Y176_R173C_YF],1.48,1.13,0.526,0.765,1.16,1.06,2.21,1.47,0.65,2.19,0.69,1.3,1.48,2,1.27,1.09
QRIHNYYEHRY [HCN4_Y554_D553N],1.36,2.91,2.88,3.79,3.62,0.65,1.63,0.68,1.33,0.724,1.62,0.791,0.769,1.71,2.06,1.7
QRPFVYFFSFL [PTEN_Y176_R173P_YF],1.23,0.783,0.703,0.789,1.39,0.707,1.54,0.721,0.426,1.33,0.664,0.967,0.748,1.29,1.13,0.783
QSKGIYFVQLE [MGAT4B_Y262_YF],1.51,0.972,2.44,1.09,1.41,0.713,1.71,1.1,0.936,1.88,2.38,1.63,1.54,0.96,0.854,0.658
QYKGKYLAKHN [CASK_Y712_D710G],0.984,0.705,0.699,1.01,1.29,0.819,0.979,0.658,0.752,0.472,0.835,0.934,0.519,1.42,0.792,1.06
RAFRRYLLKQK [SCN2A_Y1919_YF],0.708,0.535,0.61,0.617,0.865,0.675,0.703,0.696,0.63,0.712,0.971,0.531,0.671,0.829,0.44,0.454
RAILNYIASKF [GSTA3_Y74_YF],1.84,0.534,0.86,1.08,0.861,0.994,1.73,0.66,0.854,1.29,1.7,1.96,1,0.927,0.611,0.461
RAKLFYQEVPA [METTL11B_Y76],1.95,2.91,1.9,2.88,2.39,1.64,1.02,0.716,1.67,0.547,6.6,0.513,0.385,0.651,0.789,0.992
RALCHYFKLNI [ETV6_Y401_R399C_YF],1.33,0.691,0.885,0.783,0.975,0.719,1.37,0.54,0.776,1.27,0.634,1.09,0.667,1.34,2.22,1.5

# From the supplement of paper PMC10065799, “High-throughput profiling of sequence recognition by tyrosine kinases and SH2 domains using bacterial peptide display” (eLife, 2023)
